Drawing on US20260137779A1, this text covers % CD3 positive (Q2+Q3) for one substance.

For test [1], the target named is human CD3 on T (Jurkat) cells (human) (UniProt P07766). The test can be described thus: flow cytometry; PerCP-anti-hCD3e (OKT3) staining of Jurkat cells; supernatant of vector #1104, which lacks a secretion peptide (dimert not secreted). (Flow cytometry measures light scatter and fluorescence of single cells or particles in a stream.)
The target is the same in test [2]. The test can be described thus: flow cytometry; PerCP-anti-hCD3e (OKT3) staining of Jurkat cells; media alone, no competitor (same control values as in paragraph 403).
Test [3] has the same target. The test can be described thus: flow cytometry; PerCP-anti-hCD3e (OKT3) staining of Jurkat cells; supernatant of GFP-transfected 293T cells, no competitor.
Test [4] has the same target. In words: flow cytometry; PerCP-anti-hCD3e (OKT3) staining of Jurkat cells; supernatant of vector #1323, which lacks a secretion peptide (dimert not secreted).
For test [5] the target is unchanged. In words: flow cytometry; PerCP-anti-hCD3e (OKT3) staining of Jurkat cells; supernatant of untransfected 293T cells, no competitor.
The target is the same in test [6]. The test can be described thus: flow cytometry; PerCP-anti-hCD3e (OKT3) staining of Jurkat cells; supernatant of untransfected 293T cells (same control values as in paragraph 403).
For test [7] the target is unchanged. The test can be described thus: flow cytometry; PerCP-anti-hCD3e (OKT3) staining of Jurkat cells; media alone, no competitor.
Test [8] shares this target. The test can be described thus: flow cytometry; PerCP-anti-hCD3e (OKT3) staining of Jurkat cells; supernatant of GFP-transfected 293T cells (same control values as in paragraph 403).

Take PerCP-anti-hCD3e antibody (#OKT3): the % CD3 positive (Q2+Q3) in test [1] amounted to 77.7%; in test [2], 77.6%; in test [3], 78.7%; in test [4] it was 79.4%; in test [5] it was 79.2%; in test [6] it was 79.2%. Further, the % CD3 positive (Q2+Q3) in test [7] was found to be 77.6%; in test [8], 78.7%.
